Laboratory results published in patent US20240376151A1, “STAPLED PEPTIDES AND METHODS THEREOF” (FOG PHARMACEUTICALS, INC., priority 2022, published 2024).

Target: T1, RNF31 UBA domain (Homo sapiens, UniProt Q96EP0)
T1 construct: RNF31 UBA domain protein (residues 480-639) with N-terminal Thioredoxin-TEV-6×his-yBBr-3C tags; Thioredoxin (N, cleaved yes); made in house; host or cells: E. coli BL21 (DE3) pLysS
T1 sequence (Q96EP0 480-639): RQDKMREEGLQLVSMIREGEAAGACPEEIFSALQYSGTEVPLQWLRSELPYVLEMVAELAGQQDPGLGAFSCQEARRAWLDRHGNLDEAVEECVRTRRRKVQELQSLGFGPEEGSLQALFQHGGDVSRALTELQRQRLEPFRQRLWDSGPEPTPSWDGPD
Assay: Phage Library Screening with NGS, RNF31 UBA domain
Assay type: binding
Conditions: for Phage library screen NGS readout, Target Concentration 10 / Phage library screen NGS readout, Target Concentration 30 / Phage library screen NGS readout, Target Concentration 100 / Phage library screen NGS readout, Target Concentration 300 / Phage library screen NGS readout, Target Concentration 1000: RNF31 UBA domain cluster C46; for Phage library screen NGS readout, BLANK: cluster C46; for phage screen NGS read-out at Target Concentration 10 / phage screen NGS read-out at Target Concentration 30 / phage screen NGS read-out at Target Concentration 100 / phage screen NGS read-out at Target Concentration 300: no competitor

[1] = target concentration 1000, first column
[2] = target concentration 1000, second column

| Sequence | phage screen NGS read-out at Target Concentration 10 | phage screen NGS read-out at Target Concentration 30 | phage screen NGS read-out at Target Concentration 100 | phage screen NGS read-out at Target Concentration 300 | other results |
| --- | --- | --- | --- | --- | --- |
| DPAEQRCLSAAVYCAWH | – | – | – | – | Phage library screen NGS readout, Target Concentration 10: 1; Phage library screen NGS readout, Target Concentration 30: 3; Phage library screen NGS readout, Target Concentration 100: 16; Phage library screen NGS readout, Target Concentration 300: 18; Phage library screen NGS readout, Target Concentration 1000 [1]: 36; Phage library screen NGS readout, Target Concentration 1000 [2]: 26; Phage library screen NGS readout, BLANK (column 1 of 5): 0; Phage library screen NGS readout, BLANK (column 2 of 5): 1; Phage library screen NGS readout, BLANK (column 3 of 5): 1; Phage library screen NGS readout, BLANK (column 4 of 5): 0; Phage library screen NGS readout, BLANK (column 5 of 5): 0 |
| DPAEWICEMAAHNCLYM | 0 | 1 | 1 | 1 | – |
| DPAEWICRMAAMNCLYQ (Ac-DPAEWICRMAAMNCLYQ-NH2; not fully specified (bridges); cysteine pairing not given here) | 0 | 0 | 4 | 10 | – |
| DPAEWLCQMAAHNCIYL | 0 | 1 | 2 | 13 | – |
| DPAEYHCDAAAVWCYLM | 0 | 0 | 2 | 19 | – |
| DPAFFTCVYAAVTCEMT | 0 | 0 | 0 | 3 | – |
| DPAFSACVYAAYMCNQD | 0 | 0 | 1 | 4 | – |
| DPAFSECVYAAFSCSWI | 1 | 2 | 3 | 9 | – |
| DPAFSECVYAAIYCVHS | 0 | 0 | 0 | 7 | – |
| DPAFSECVYAATMCLNH | 2 | 0 | 1 | 1 | – |
| DPAFSLCVYAALFCEQQ | 0 | 0 | 8 | 20 | – |
| DPAFSLCVYAAVECDHA | 0 | 0 | 0 | 1 | – |
| DPAFSMCVYAAVTCVST | 0 | 0 | 0 | 4 | – |
| DPAFSQCIYAAFQCDMQ | 0 | 0 | 0 | 2 | – |
| DPAFSQCVYAAFFCREI | 1 | 0 | 2 | 20 | – |
| DPAFSQCVYAAVVCEVQ | 2 | 0 | 11 | 55 | – |
| DPAFSQCVYAAWHCESL | 1 | 0 | 2 | 7 | – |
| DPAFSRCVYAAFTCQTF | 0 | 0 | 1 | 10 | – |

| Sequence | phage screen NGS read-out at Target Concentration 10 | phage screen NGS read-out at Target Concentration 30 | phage screen NGS read-out at Target Concentration 100 | phage screen NGS read-out at Target Concentration 300 | other results |
| --- | --- | --- | --- | --- | --- |
| DPAFSRCVYAAVACEDH | 0 | 1 | 3 | 31 | – |
| DPAFSTCIYAAVMCMDQ | 0 | 0 | 3 | 19 | – |
| DPAFSTCVYAAIICNDT | 0 | 0 | 7 | 29 | – |
| DPAFSTCVYAAVFCQNT | 0 | 0 | 1 | 8 | – |
| DPAFYECVYAAVTCTQF | 0 | 0 | 0 | 2 | – |
| DPAHEHCTAAASWCYIL | 0 | 0 | 3 | 8 | – |
| DPAHEHCTSAAAWCMLL | 0 | 0 | 0 | 2 | – |
| DPAHHHCQAAAAWCWVM | 2 | 0 | 4 | 19 | – |
| DPAHILCEMAARNCLYN | 3 | 1 | 1 | 1 | – |
| DPAHVHCQAAAQWCVLL | 0 | 1 | 1 | 6 | – |
| DPAHVRCTSAALWCNIF | – | – | – | – | Phage library screen NGS readout, Target Concentration 10: 0; Phage library screen NGS readout, Target Concentration 30: 0; Phage library screen NGS readout, Target Concentration 100: 3; Phage library screen NGS readout, Target Concentration 300: 4; Phage library screen NGS readout, Target Concentration 1000 [1]: 5; Phage library screen NGS readout, Target Concentration 1000 [2]: 7; Phage library screen NGS readout, BLANK (column 1 of 5): 0; Phage library screen NGS readout, BLANK (column 2 of 5): 0; Phage library screen NGS readout, BLANK (column 3 of 5): 0; Phage library screen NGS readout, BLANK (column 4 of 5): 0; Phage library screen NGS readout, BLANK (column 5 of 5): 0 |
| DPAITHCTAAAMWCHLL | 1 | 0 | 9 | 80 | – |
| DPALQHCAAAASWCWLM | 1 | 2 | 4 | 20 | – |
| DPALQSCLSAAVYCTVS | – | – | – | – | Phage library screen NGS readout, Target Concentration 10: 0; Phage library screen NGS readout, Target Concentration 30: 0; Phage library screen NGS readout, Target Concentration 100: 6; Phage library screen NGS readout, Target Concentration 300: 10; Phage library screen NGS readout, Target Concentration 1000 [1]: 9; Phage library screen NGS readout, Target Concentration 1000 [2]: 10; Phage library screen NGS readout, BLANK (column 1 of 5): 0; Phage library screen NGS readout, BLANK (column 2 of 5): 0; Phage library screen NGS readout, BLANK (column 3 of 5): 0; Phage library screen NGS readout, BLANK (column 4 of 5): 0; Phage library screen NGS readout, BLANK (column 5 of 5): 0 |
| DPALRTCLSAAVFCAVA | – | – | – | – | Phage library screen NGS readout, Target Concentration 10: 0; Phage library screen NGS readout, Target Concentration 30: 6; Phage library screen NGS readout, Target Concentration 100: 10; Phage library screen NGS readout, Target Concentration 300: 18; Phage library screen NGS readout, Target Concentration 1000 [1]: 15; Phage library screen NGS readout, Target Concentration 1000 [2]: 25; Phage library screen NGS readout, BLANK (column 1 of 5): 0; Phage library screen NGS readout, BLANK (column 2 of 5): 0; Phage library screen NGS readout, BLANK (column 3 of 5): 1; Phage library screen NGS readout, BLANK (column 4 of 5): 0; Phage library screen NGS readout, BLANK (column 5 of 5): 1 |
| DPALSQCVYAAVFCQNL | 0 | 2 | 0 | 4 | – |
| DPALSTCVYAAVMCQDV | 0 | 0 | 2 | 4 | – |
| DPALTHCTAAAYWCYVM | 0 | 0 | 0 | 2 | – |
